assay: yeast display, Sf9 membrane polyspecificity reagent, FACS + sequencing; frameworks hold sequencing errors
Summary of the method: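 A nanobody's polyreactivity label depends on the gate it was sorted from. Yeast display cells were stained with 10% biotinylated, detergent-solubilized Sf9 membrane reagent for 1 hour at 4 °C, enriched on streptavidin microbeads and sorted by FACS. The low and high (top ~1%) gates were set on anti-HA fluorescence for expression and streptavidin fluorescence for reagent binding.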

| Sequence | polyreactivity (PSR sort gate) |
| --- | --- |
| QVHLVESGGGLVQAGGSLRLSCAASGRTFWNYAMGWYRQAPGKEREFVAVIRFSDGSTYYADSVKGRFTISRDNAKNTVYLQMNSLKPDDTAVYYCAAKGPRRWGSGFDYWGQGNQVTVSS | low polyreactivity |
| QVHLVESGGGLVQAGGSLRLSCAASGRTFYANAMGWYIQAPGKERELVAAISTGGDGTYYADSVKGRFTISRDNAKNTVYLQMNSLKPEDTAVYYCAVRHRASGILYDYWGQGTQVTVSS | low polyreactivity |
| QVHLVESGGGLVQAGGSLRLSCAASGRTFYDYAMGWYRQAPGKERELVAAITYSGGSTFYADSVKGRFTISRDNAKNTFYLQMNSLKPEDTAVYYCAAEVLRLVGAAEYDYWGQGTQVTVSS | low polyreactivity |
| QVHLVESGGGLVQAGGSLRLSCAASGRTFYRNAMGWYRQAPGKERELVAAIRTRTGSTYYADSVKGRFTISRDNAKNTVYLQMNSLKPEDTAGYYCAALAWYPYYASWPVESDYWGQGTQVTVSS | high polyreactivity |
| QVHLVESGGGLVQAGGSLRLSCAASGRTIDRNTMGWYRQAPVKERELVATITWSVGRTYYADSVKGRFTISRDNGKITVYVQMISMKPEDTGVYFCAAGIYAYKYESWGHGTQVTVSS | high polyreactivity |
| QVHLVESGGGLVQAGGSLRLSCAASGRTIHSYAMGWYRQAPGKERELVAAINNGGGTYYADSVKGRFTISRDNAKNTVYLQMNSRKPEDTAVYYCAAATRKRIGSYYYWGQGTQVTVSS | high polyreactivity |
| QVHLVESGGGLVQAGGSLRLSCAASGRTSIFNAMGWYRPAPGKERELVAAITARGASTYYADSVKGRFTISRDNAKNTVYLQKNSLKPDDTAVYYCAARDHAFRYYRNPFKGKYDYWGQGTQVTVSS | low polyreactivity |
| QVHLVESGGGLVQAGGSLRLSCAASGSIFAGNAMGLSRQAPGKERELVAGISRSGGSTNYADSVKGRFTISRDNAKNSVYLQMNSLKPEDTAVYYCNTDPYSSAWYNYDYWGLGTQVTVSS | low polyreactivity |
| QVHLVESGGGLVQAGGSLRLSCAASGSIFFVYAMGWYRQAPGKERELVAAISNDGSTNYADSVKGRFTISRDNAKNTVYLQMNSLKPEDTAVYYCAADPSLRQYAYFDYDYWGQGTQVTVSS | low polyreactivity |
| QVHLVESGGGLVQAGGSLRLSCAASGSIFGDNTMGWYRQAPGKERELVAAISQSSGTSTYYADSVKGRFTISRDNAKNTVYFQMNSLKPEDTAVYYCAKDPHGSDFGYWGQVTQVTVSS | low polyreactivity |
| QVHLVESGGGLVQAGGSLRLSCAASGSIFGSYAMGWYRQAPGKERELVAAITIADITYYADSVKGRFTISRDNAKNTVNLQMNSLKPEDTAVYYCNAYWGWRDSWYYYWGQGTQVTVSS | low polyreactivity |
| QVHLVESGGGLVQAGGSLRLSCAASGSIFIVYTMGWYRQAPGKERELVAAISSGGITDYADSVKGRFTISRDNAKNTVYLQMNSLKPEDTAVYYWGQGTQVTVSS | low polyreactivity |
| QVHLVESGGGLVQAGGSLRLSCAASGSIFRIYAMGWYRQAPGKERELVAAINAGGGRTYYADSVKGRFTISRDNAKNTVYLQMNSLKPEDNAVYFCAARHTEYRQESLYYWGQGTQVTVSS | low polyreactivity |
| QVHLVESGGGLVQAGGSLRLSCAASGSIFSVYTRGWYRQAPGKERELVAAISTGGGSTYYADSVKGRFTISRDNAKNTVYLQMNSLKPEDTAVYYCATDYGWAPSYWYDSCGQGTQVTVSS | low polyreactivity |
| QVHLVESGGGLVQAGGSLRLSCAASGSIFVLYAMGWYRQAPGKERELVAAISRGVGGTNYADSVKGRFTISRDNAKNTVYLQMNSLKPEDTAVYYCAADWLWAWHYYGAMDYWGQGTQVTVSS | high polyreactivity |
| QVHLVESGGGLVQAGGSLRLSCAASGSIFVSNAMGWYRQAPGKERELVAAIRGVDSTYYADSVKGRFTISRDNAKNTVYLQMNSLKPEDTAVYYCATPGPGYTRYYYWGQGTQVTVSS | high polyreactivity |

| Sequence | polyreactivity (PSR sort gate) |
| --- | --- |
| QVHLVESGGGLVQAGGSLRLSCAASGSIFWYYGMGWYRQAPGKERELVASITSGGSTNYADSVKGRFSISRDNAKNTVYLQMNRLKPEDSAVYYCNTDDDSSSTGYYSWGQGTQVNVSS | low polyreactivity |
| QVHLVESGGGLVQAGGSLRLSCAASGSIFYPYAMGWYRQAPGKERELVAAISGRGGNTYYADSVKGRFTISRDNAKNTVYFQMNSLKPEDTAVYYCAADRYYWSLYGYDYWGQGTQVTVSS | high polyreactivity |
| QVHLVESGGGLVQAGGSLRLSCAASGSIIRYYAMGWYRQAPGKERELVAVITRGGSTYYADSVKGRFTISRDNAKSTVYLQMNSLKPEDTAVYYCAADYWPAGLDRGYWGQGTQVTVSS | low polyreactivity |
| QVHLVESGGGLVQAGGSLRLSCAASGSILLRYAMGWYRQAPGKERELVAAIRTIGASTYYADSVKGRFTISRDNAKNTVYLQMNSLKPEDTAVYYCNAYLAEVLPLGKGRLYDYWGLGTQVTVSS | low polyreactivity |
| QVHLVESGGGLVQAGGSLRLSCAASGSIYHNAMGWYRQAPGKERELVAAITSSGGRTYYADSVKGRFTISRDNAKNTVYLQMNSLKPEDTAVYYCNALAHQYHRYEFGYWGQGTQVTVSS | low polyreactivity |
| QVHLVESGGGLVQAGGSLRLSCAASGSNFRSYAMGWYRQAPWKERELDAAISSSGGRTYYADSVKGRFTISRDNAKNTVYLQMNSVKPEDNAVYYCAAYRGGGYKYDYWGQGTQVTVSS | high polyreactivity |
| QVHLVESGGGLVQAGGSLRLSCAASGSTFAVYAMGWYRQAPWKESELVAGISSRGGRTYYADSVKGRFTISRDNAKNTVYLQMNSLKPEDTAVYYCNVVYTYWRYYRWREYDYWGQGTQVTVSS | high polyreactivity |
| QVHLVESGGGLVQAGGSLRLSCAASGSTFAYNAMGWYRTAPGKERELVAAISSSGGRTYYADSVKGRFTLSRDNAKNTVYLQMISLKPEDTAVYYCNAAYYYTYGYWGQGTEVTVSS | high polyreactivity |
| QVHLVESGGGLVQAGGSLRLSCAASGSTFFYAMGWYRQAPRKERELVAAISWIDSLTYYADSVKGRFTISRDNEKITVYLQMNILKAEDTAFYYCAAEGQNEGYDYWGQGSQVTVSS | high polyreactivity |
| QVHLVESGGGLVQAGGSLRLSCAASGSTFGSNAMGWYRQAPGKERELVAAITNGGSTNYADSVKGRFTISRDNAKNTVYLQMNSLKPDDTAVYYCNGDPQQSKLWTYFFGFPGYYWGQGTQVTVSS | low polyreactivity |
| QVHLVESGGGLVQAGGSLRLSCAASGSTFILNAMGWYRQAPGKERELVATISSSDTSTYYADSVKGRFTISRDNAKNTVYLQMNSLKPEDTAVYYCNADYYTTSYLQRVYHYGVEYDYWGQGTQVTVSS | low polyreactivity |
| QVHLVESGGGLVQAGGSLRLSCAASGSTFISYAMGWYRQAPGKERELVAAISRNGGRTYYADSVKGRFTISRDNAKNTVYLQMNSLKPEDTAVYYCAAAYNSYRFDYWGQGTQVTVSS | high polyreactivity |
| QVHLVESGGGLVQAGGSLRLSCAASGSTFKPYTMGWYRQAPGKERELVAAITSRGTSTYYADSVKGRFKISRDNAKNTVYLQMNSLKPEDTEVYYCAARRPGTFSYGYWGQGTQVTVSS | high polyreactivity |
| QVHLVESGGGLVQAGGSLRLSCAASGSTFKRYAMGWYRQAPGKERELVASISQRGGTTYYADSVKGRFTISRDNAKNTVYLQMNSLKPEDTAVYYCANGFGWTRTIYDYWGQGTQVTVSS | high polyreactivity |
| QVHLVESGGGLVQAGGSLRLSCAASGSTFPANAMGRYRQAPGKERELVAAITSGGSTNYADSVKGRFTISRDNAKNTVYLQMNSLKPEDTAVYYCADESYQAHSFYVYYGYDYWGQGTQVTVSS | low polyreactivity |
| QVHLVESGGGLVQAGGSLRLSCAASGSTFPYYDMGWYRQAPGKERELVAAITYNGGNTYYADSVKGRFTISRDNAKNTVYLQMNSLKPEDTAVYYCAADGTLARLYYWATGDEDGYWGQGTQVTVSS | low polyreactivity |
